± gives the uncertainty stated by the source.
B1: GAS2-like protein 1, residues 209 to 276; numbered along this chain, Q99501 (parent)
chain: DELVREILGRCTCPDQFPMIKVSEGKYRVGDSSLLIFVRVLRSHVMVRVGGGWDTLEHYLDKHDPCRC

Variants of: B1
Test: abundance fitness (aPCA) (normalised: wild type 0, dead -1); higher = more abundant; growth selection in yeast, the domain comes from the species named
Settings: Homo sapiens

Variant | abundance fitness
DELVREILGCCTCPDQFPMIKVSEGKYRVGDSSLLIFVRVLRSHVMVRVGGGWDTLEHYLDKHDPCRC [R10C] | -0.72 ± 0.11
DELVREILGTCTCPDQFPMIKVSEGKYRVGDSSLLIFVRVLRSHVMVRVGGGWDTLEHYLDKHDPCRC [R10T] | -0.111 ± 0.053
DELVREILGVCTCPDQFPMIKVSEGKYRVGDSSLLIFVRVLRSHVMVRVGGGWDTLEHYLDKHDPCRC [R10V] | -0.747 ± 0.099
DELVREILGWCTCPDQFPMIKVSEGKYRVGDSSLLIFVRVLRSHVMVRVGGGWDTLEHYLDKHDPCRC [R10W] | -0.728 ± 0.11
DELVREILGECTCPDQFPMIKVSEGKYRVGDSSLLIFVRVLRSHVMVRVGGGWDTLEHYLDKHDPCRC [R10E] | -0.386 ± 0.1
DELVREILGYCTCPDQFPMIKVSEGKYRVGDSSLLIFVRVLRSHVMVRVGGGWDTLEHYLDKHDPCRC [R10Y] | -0.564 ± 0.13
DELVREILGSCTCPDQFPMIKVSEGKYRVGDSSLLIFVRVLRSHVMVRVGGGWDTLEHYLDKHDPCRC [R10S] | -0.318 ± 0.05
DELVREILGACTCPDQFPMIKVSEGKYRVGDSSLLIFVRVLRSHVMVRVGGGWDTLEHYLDKHDPCRC [R10A] | -0.311 ± 0.052
DELVREILGKCTCPDQFPMIKVSEGKYRVGDSSLLIFVRVLRSHVMVRVGGGWDTLEHYLDKHDPCRC [R10K] | -0.135 ± 0.063
DELVREILGHCTCPDQFPMIKVSEGKYRVGDSSLLIFVRVLRSHVMVRVGGGWDTLEHYLDKHDPCRC [R10H] | -0.013 ± 0.051
DELVREILGPCTCPDQFPMIKVSEGKYRVGDSSLLIFVRVLRSHVMVRVGGGWDTLEHYLDKHDPCRC [R10P] | -0.863 ± 0.16
DELVREILGNCTCPDQFPMIKVSEGKYRVGDSSLLIFVRVLRSHVMVRVGGGWDTLEHYLDKHDPCRC [R10N] | -0.234 ± 0.062
DELVREILGGCTCPDQFPMIKVSEGKYRVGDSSLLIFVRVLRSHVMVRVGGGWDTLEHYLDKHDPCRC [R10G] | -0.432 ± 0.077
DELVREILGQCTCPDQFPMIKVSEGKYRVGDSSLLIFVRVLRSHVMVRVGGGWDTLEHYLDKHDPCRC [R10Q] | -0.088 ± 0.071
DELVREILGICTCPDQFPMIKVSEGKYRVGDSSLLIFVRVLRSHVMVRVGGGWDTLEHYLDKHDPCRC [R10I] | -0.766 ± 0.14
DELVREILGFCTCPDQFPMIKVSEGKYRVGDSSLLIFVRVLRSHVMVRVGGGWDTLEHYLDKHDPCRC [R10F] | -0.448 ± 0.067
DELVREYLGRCTCPDQFPMIKVSEGKYRVGDSSLLIFVRVLRSHVMVRVGGGWDTLEHYLDKHDPCRC [I7Y] | -0.275 ± 0.14
DELVREWLGRCTCPDQFPMIKVSEGKYRVGDSSLLIFVRVLRSHVMVRVGGGWDTLEHYLDKHDPCRC [I7W] | -0.748 ± 0.12
DELVREVLGRCTCPDQFPMIKVSEGKYRVGDSSLLIFVRVLRSHVMVRVGGGWDTLEHYLDKHDPCRC [I7V] | -0.219 ± 0.049
DELVRELLGRCTCPDQFPMIKVSEGKYRVGDSSLLIFVRVLRSHVMVRVGGGWDTLEHYLDKHDPCRC [I7L] | -0.012 ± 0.034
DELVRERLGRCTCPDQFPMIKVSEGKYRVGDSSLLIFVRVLRSHVMVRVGGGWDTLEHYLDKHDPCRC [I7R] | -0.85 ± 0.097
DELVRETLGRCTCPDQFPMIKVSEGKYRVGDSSLLIFVRVLRSHVMVRVGGGWDTLEHYLDKHDPCRC [I7T] | -0.38 ± 0.078
DELVREQLGRCTCPDQFPMIKVSEGKYRVGDSSLLIFVRVLRSHVMVRVGGGWDTLEHYLDKHDPCRC [I7Q] | 0.069 ± 0.046
DELVREMLGRCTCPDQFPMIKVSEGKYRVGDSSLLIFVRVLRSHVMVRVGGGWDTLEHYLDKHDPCRC [I7M] | -0.273 ± 0.075
DELVRENLGRCTCPDQFPMIKVSEGKYRVGDSSLLIFVRVLRSHVMVRVGGGWDTLEHYLDKHDPCRC [I7N] | -0.74 ± 0.13
DELVREPLGRCTCPDQFPMIKVSEGKYRVGDSSLLIFVRVLRSHVMVRVGGGWDTLEHYLDKHDPCRC [I7P] | -1.04 ± 0.17
DELVREILGRFTCPDQFPMIKVSEGKYRVGDSSLLIFVRVLRSHVMVRVGGGWDTLEHYLDKHDPCRC [C11F] | -0.848 ± 0.2

Variant | abundance fitness
DELVREILGRWTCPDQFPMIKVSEGKYRVGDSSLLIFVRVLRSHVMVRVGGGWDTLEHYLDKHDPCRC [C11W] | -1 ± 0.15
DELVREILGRPTCPDQFPMIKVSEGKYRVGDSSLLIFVRVLRSHVMVRVGGGWDTLEHYLDKHDPCRC [C11P] | -1.17 ± 0.35
DELVREILGRETCPDQFPMIKVSEGKYRVGDSSLLIFVRVLRSHVMVRVGGGWDTLEHYLDKHDPCRC [C11E] | -1 ± 0.2
DELVREILGRTTCPDQFPMIKVSEGKYRVGDSSLLIFVRVLRSHVMVRVGGGWDTLEHYLDKHDPCRC [C11T] | -0.882 ± 0.12
DELVREILGRHTCPDQFPMIKVSEGKYRVGDSSLLIFVRVLRSHVMVRVGGGWDTLEHYLDKHDPCRC [C11H] | -0.966 ± 0.26
DELVREILGRQTCPDQFPMIKVSEGKYRVGDSSLLIFVRVLRSHVMVRVGGGWDTLEHYLDKHDPCRC [C11Q] | -0.986 ± 0.26
DELVREILGRVTCPDQFPMIKVSEGKYRVGDSSLLIFVRVLRSHVMVRVGGGWDTLEHYLDKHDPCRC [C11V] | -0.752 ± 0.087
DELVREILGRRTCPDQFPMIKVSEGKYRVGDSSLLIFVRVLRSHVMVRVGGGWDTLEHYLDKHDPCRC [C11R] | -0.932 ± 0.086
DELVREILGRKTCPDQFPMIKVSEGKYRVGDSSLLIFVRVLRSHVMVRVGGGWDTLEHYLDKHDPCRC [C11K] | -0.949 ± 0.13
DELVREILGRMTCPDQFPMIKVSEGKYRVGDSSLLIFVRVLRSHVMVRVGGGWDTLEHYLDKHDPCRC [C11M] | -0.771 ± 0.15
DELVREILGRITCPDQFPMIKVSEGKYRVGDSSLLIFVRVLRSHVMVRVGGGWDTLEHYLDKHDPCRC [C11I] | -1.08 ± 0.33
DELVREILGRDTCPDQFPMIKVSEGKYRVGDSSLLIFVRVLRSHVMVRVGGGWDTLEHYLDKHDPCRC [C11D] | -0.84 ± 0.29
DELVREILGRLTCPDQFPMIKVSEGKYRVGDSSLLIFVRVLRSHVMVRVGGGWDTLEHYLDKHDPCRC [C11L] | -0.895 ± 0.083
DELVREILGRATCPDQFPMIKVSEGKYRVGDSSLLIFVRVLRSHVMVRVGGGWDTLEHYLDKHDPCRC [C11A] | -0.618 ± 0.084
DELVREILGRSTCPDQFPMIKVSEGKYRVGDSSLLIFVRVLRSHVMVRVGGGWDTLEHYLDKHDPCRC [C11S] | -0.961 ± 0.13
DELVREIKGRCTCPDQFPMIKVSEGKYRVGDSSLLIFVRVLRSHVMVRVGGGWDTLEHYLDKHDPCRC [L8K] | -0.948 ± 0.13
DELVREINGRCTCPDQFPMIKVSEGKYRVGDSSLLIFVRVLRSHVMVRVGGGWDTLEHYLDKHDPCRC [L8N] | -0.793 ± 0.13
DELVREIFGRCTCPDQFPMIKVSEGKYRVGDSSLLIFVRVLRSHVMVRVGGGWDTLEHYLDKHDPCRC [L8F] | -0.704 ± 0.12
DELVREIAGRCTCPDQFPMIKVSEGKYRVGDSSLLIFVRVLRSHVMVRVGGGWDTLEHYLDKHDPCRC [L8A] | -0.352 ± 0.054
DELVREITGRCTCPDQFPMIKVSEGKYRVGDSSLLIFVRVLRSHVMVRVGGGWDTLEHYLDKHDPCRC [L8T] | -0.414 ± 0.058
DELVREIWGRCTCPDQFPMIKVSEGKYRVGDSSLLIFVRVLRSHVMVRVGGGWDTLEHYLDKHDPCRC [L8W] | -0.886 ± 0.12
DELVREIYGRCTCPDQFPMIKVSEGKYRVGDSSLLIFVRVLRSHVMVRVGGGWDTLEHYLDKHDPCRC [L8Y] | -1.05 ± 0.19
DELVREIDGRCTCPDQFPMIKVSEGKYRVGDSSLLIFVRVLRSHVMVRVGGGWDTLEHYLDKHDPCRC [L8D] | -0.702 ± 0.25
DELVREIGGRCTCPDQFPMIKVSEGKYRVGDSSLLIFVRVLRSHVMVRVGGGWDTLEHYLDKHDPCRC [L8G] | -0.819 ± 0.088
DELVREIIGRCTCPDQFPMIKVSEGKYRVGDSSLLIFVRVLRSHVMVRVGGGWDTLEHYLDKHDPCRC [L8I] | -0.002 ± 0.063
DELVREISGRCTCPDQFPMIKVSEGKYRVGDSSLLIFVRVLRSHVMVRVGGGWDTLEHYLDKHDPCRC [L8S] | -0.532 ± 0.058
DELVREIPGRCTCPDQFPMIKVSEGKYRVGDSSLLIFVRVLRSHVMVRVGGGWDTLEHYLDKHDPCRC [L8P] | -0.819 ± 0.24

Variant | abundance fitness
DELVREIVGRCTCPDQFPMIKVSEGKYRVGDSSLLIFVRVLRSHVMVRVGGGWDTLEHYLDKHDPCRC [L8V] | -0.071 ± 0.035
DELVREIQGRCTCPDQFPMIKVSEGKYRVGDSSLLIFVRVLRSHVMVRVGGGWDTLEHYLDKHDPCRC [L8Q] | -0.323 ± 0.12
DELVREIEGRCTCPDQFPMIKVSEGKYRVGDSSLLIFVRVLRSHVMVRVGGGWDTLEHYLDKHDPCRC [L8E] | -0.737 ± 0.089
DELVREIMGRCTCPDQFPMIKVSEGKYRVGDSSLLIFVRVLRSHVMVRVGGGWDTLEHYLDKHDPCRC [L8M] | -0.254 ± 0.1
DELVREIHGRCTCPDQFPMIKVSEGKYRVGDSSLLIFVRVLRSHVMVRVGGGWDTLEHYLDKHDPCRC [L8H] | -0.436 ± 0.2
DELVREICGRCTCPDQFPMIKVSEGKYRVGDSSLLIFVRVLRSHVMVRVGGGWDTLEHYLDKHDPCRC [L8C] | -0.47 ± 0.14
DELVREIRGRCTCPDQFPMIKVSEGKYRVGDSSLLIFVRVLRSHVMVRVGGGWDTLEHYLDKHDPCRC [L8R] | -0.754 ± 0.063
DELVREILFRCTCPDQFPMIKVSEGKYRVGDSSLLIFVRVLRSHVMVRVGGGWDTLEHYLDKHDPCRC [G9F] | -0.399 ± 0.097
DELVREILSRCTCPDQFPMIKVSEGKYRVGDSSLLIFVRVLRSHVMVRVGGGWDTLEHYLDKHDPCRC [G9S] | 0.077 ± 0.031
DELVREILDRCTCPDQFPMIKVSEGKYRVGDSSLLIFVRVLRSHVMVRVGGGWDTLEHYLDKHDPCRC [G9D] | 0.107 ± 0.05
DELVREILQRCTCPDQFPMIKVSEGKYRVGDSSLLIFVRVLRSHVMVRVGGGWDTLEHYLDKHDPCRC [G9Q] | 0.061 ± 0.066
DELVREILIRCTCPDQFPMIKVSEGKYRVGDSSLLIFVRVLRSHVMVRVGGGWDTLEHYLDKHDPCRC [G9I] | -0.572 ± 0.1
DELVREILERCTCPDQFPMIKVSEGKYRVGDSSLLIFVRVLRSHVMVRVGGGWDTLEHYLDKHDPCRC [G9E] | 0.03 ± 0.063
DELVREILCRCTCPDQFPMIKVSEGKYRVGDSSLLIFVRVLRSHVMVRVGGGWDTLEHYLDKHDPCRC [G9C] | -0.54 ± 0.088
DELVREILNRCTCPDQFPMIKVSEGKYRVGDSSLLIFVRVLRSHVMVRVGGGWDTLEHYLDKHDPCRC [G9N] | -0.076 ± 0.07
DELVREILVRCTCPDQFPMIKVSEGKYRVGDSSLLIFVRVLRSHVMVRVGGGWDTLEHYLDKHDPCRC [G9V] | -0.587 ± 0.044
DELVREILMRCTCPDQFPMIKVSEGKYRVGDSSLLIFVRVLRSHVMVRVGGGWDTLEHYLDKHDPCRC [G9M] | -0.127 ± 0.065
DELVREILPRCTCPDQFPMIKVSEGKYRVGDSSLLIFVRVLRSHVMVRVGGGWDTLEHYLDKHDPCRC [G9P] | -0.818 ± 0.11
DELVREILLRCTCPDQFPMIKVSEGKYRVGDSSLLIFVRVLRSHVMVRVGGGWDTLEHYLDKHDPCRC [G9L] | -0.445 ± 0.054
DELVREILRRCTCPDQFPMIKVSEGKYRVGDSSLLIFVRVLRSHVMVRVGGGWDTLEHYLDKHDPCRC [G9R] | -0.204 ± 0.043
DELVREILWRCTCPDQFPMIKVSEGKYRVGDSSLLIFVRVLRSHVMVRVGGGWDTLEHYLDKHDPCRC [G9W] | -0.71 ± 0.073
DELVREILHRCTCPDQFPMIKVSEGKYRVGDSSLLIFVRVLRSHVMVRVGGGWDTLEHYLDKHDPCRC [G9H] | -0.221 ± 0.071
DELVREILARCTCPDQFPMIKVSEGKYRVGDSSLLIFVRVLRSHVMVRVGGGWDTLEHYLDKHDPCRC [G9A] | 0.007 ± 0.061
DELVREILTRCTCPDQFPMIKVSEGKYRVGDSSLLIFVRVLRSHVMVRVGGGWDTLEHYLDKHDPCRC [G9T] | -0.346 ± 0.056
DELVREILKRCTCPDQFPMIKVSEGKYRVGDSSLLIFVRVLRSHVMVRVGGGWDTLEHYLDKHDPCRC [G9K] | -0.12 ± 0.067

Reference: the Human Domainome abundance scans (Beltran et al. 2025)
